Measurements published in patent US9486519B2, “Use of FLT3 ligand for enhancing immune responses in RNA immunization” (BioNTech AG, priority 2008, dated 2016).
“Also recorded” adds a separate entry of the source.

Key:
lymph nodes and spleen = experiment: Cellularity of lymph nodes and spleen after i.p. Flt3-L; assay type: in vivo, C57Bl/6 mice; conditions: 2x, 3x, 5x 10 μg i.p.; 10-12 days after the first injection
Protocol: C57Bl/6 mice (n=3-9) were administered 10 μg Flt3L intraperitoneally at different timepoints (d1 to d3 or d1, d1, d3 or d0, d3). On day 10 the lymph nodes (LN) and the spleen were removed and the cell count was determined. The data shown represent the average cell count +SEM of the lymph nodes. *: p<0.05 in Tukey's multiple comparison test.
To test the effects of application of human Flt3 ligand on the efficiency of RNA-based immunizations, the changes in the cellular composition of lymph nodes and spleen were first investigated in the mouse model. For this, various application schemes (2×, 3×, 5×10 μg) of recombinant Flt3-L were applied intraperitoneally and the cellularity was determined 10-12 days after the first injection. […] This increase could be shown for all relevant subpopulations of the dendritic cells in spleen and lymph nodes (FIG. 2).

[1] = tested on: SIINFEKL epitope-specific CD8+ T cells; experiment: Tetramer and intracellular IFNγ measurement after Flt3-L pretreatment and intranodal RNA immunization; assay type: in vivo, C57Bl/6 mice; conditions: dose above 2×10 μg; data not shown
dendritic cells = experiment: Activation status (CD86, CD80, MHC-II, CD40) of lymph node dendritic cells after Flt3L; assay type: in vivo, C57BL/6 mice; conditions: 10 μg day 0 and 3; day 10
Protocol: In addition, C57BL/6 mice (n=3-7) were administered Flt3L twice (day 0 and 3, each time 10 μg). On day 10 the lymph nodes were removed and the activation status (CD86, CD80, MHC-II, CD40) of the dendritic cells was determined by flow cytometry.

[2] = tested on: antigen-specific CD8+ T lymphocytes; experiment: Effects of different Flt3L on the stimulation of naive T cells, MHC multimer measurement in peripheral blood; assay type: in vivo, C57BL/6 mice; conditions: 0.4 mol i.p. day 0, +3; 20 μg SIINFEKL coding RNA day +7, +10; blood day +15
Protocol: (§1) These mice were immunized intralymphatically on day +7, +10 with 20 μg […] coding RNA. The control group remained untreated (n=2). On day +15 the frequency of antigen-specific CD8^+ T lymphocytes was measured in peripheral blood by means of MHC multimer measurement.
To this end a product recombinantly expressed in bacteria (Peprotech Flt3L) and a product expressed in human HEK293 cells (Humanzyme Flt3L) was used; cf. Example 7. Human IgG4 served as control.
as §1, with “measured by flow cytometry” for “measured”, “measurement (Beckman Coulter).” for “measurement.”
The mice were administered intraperitoneally Flt3L in equimolar amounts (day 0, +3). In addition, mice were immunized intranodally twice with […] coding RNA (+7, +10). The success of the immunization was quantified by flow cytometry on day +15 by means of tetramer staining.

[3] = Half-time of Flt3L-IgG4 in serum, human IgG ELISA; assay type: in vivo, Balb/c mice
Protocol: At defined time points (prior to administration; 3 h, 24 h, 48 h, 3 d, 5 d, 7 d, 9 d, 14 d, 21 d) serum samples of the mice were preserved. These samples were used in an ELISA assay for quantifying human IgG. The half-time is 2.14 days (=51 hours).
At defined time points (prior to administration; 3 h, 24 h, 48 h, 3 d, 5 d, 7 d, 9 d, 14 d, 21 d) serum samples of the mice were preserved. These samples were used in an ELISA assay for quantifying human IgG. The half-time is 1,667 days (=40 hours).
Serum samples obtained from the mice were preserved at defined time points (prior to administration; 3 h, 24 h, 48 h, 3 d, 5 d, 7 d, 9 d, 14 d, 21d). Human IgG was quantified in these samples by means of an ELISA assay. Due to the fusion of human IgG4 to FIt3L in this construct the Flt3L concentration can be determined by quantifying human IgG in serum of mice.

B16 Ova tumors [4] = experiment: Therapeutic vaccination against B16 Ova tumors, survival; assay type: in vivo, C57BL/6 mice
Protocol: To examine the synergy of combining Flt3L administration with RNA vaccination, a therapeutic tumor experiment was performed. To this end, 4 groups (n=10) of C57BL/6 mice were formed. All mice received on day 0 a s.c. injection of B16 Ova cells (2×10^5). Hereof a control group was only treated by IgG4 injection (10 μg; d3, d7, d14, d17). […] The Kaplan Meier plot of the survival rate of mice is shown.
To investigate the synergy of the combination of Flt3L administration together with RNA vaccination a therapeutic tumor experiment was performed. To this end four groups (n=10) of C57BL/6 mice were formed. All mice received on day 0 a s.c. injection of 2×10^5 B16 Ova tumor cells (Bellone et al., J. Immunol., 2000, 165:2651-2656). Thereof a control group was only treated by IgG4 injection (10 μg; d3, d7, d14, d17).

B16 Ova tumors [5] = experiment: Therapeutic vaccination against B16 Ova tumors, tumor volume; assay type: in vivo, C57BL/6 mice
Protocol: Examination of tumor growth. To this end, four groups (n=10) of C57BL/6 mice were formed. All mice received on day 0 a s.c. injection of B16 Ova tumor cells (2×10^5). Hereof a control group was only treated by IgG4 injection (15 μg; d3, d7, d14, d18). […] The tumor volume was determined after tumor inoculation on a regular basis (d7, d10, d13, d16, d19, d22). The average tumor volume [mm^3] on the days following tumor inoculation [day] is shown.
To this end four groups (n=10) of C57BL/6 mice were formed. All mice received on day 0 a s.c. injection of 2×10^5 B16 Ova tumor cells (Bellone et al., J. Immunol., 2000, 165:2651-2656). Thereof a control group was only treated by injection of IgG4 (15 μg; d3, d7, d14, d18). […] The tumor volume was determined on the following days after tumor inoculation: d7, d10, d13, d16, d19 and d22 (d=day).

B1: Flt3L-IgG4: recombinant human Flt3 ligand prepared as a fusion protein with IgG4, SEQ ID NO: 6, expressed in HEK293 cells (protein)
chain: MTVLAPAWSPTTYLLLLLLLSSGLSGTQDCSFQHSPISSDFAVKIRELSDYLLQDYPVTVASNLQDEELCGGLWRLVLAQRWMERLKTVAGSKMQGLLERVNTEIHFVTKCAFQPPPSCLRFVQTNISRLLQETSEQLVALKPWITRQNFSRCLELQCQPDSSTLPPPWSPRPLEATAPTAPQPPRSPPCPSCPAPEFLGGPSVFLFPPKPKDTLMISRTPEVTCVVVDVSQEDPEVQFNWYVDGVEVHNAKTKPREEQFNSTYRVVSVLTVLHQDWLNGKEYKCKVSNKGLPSSIEKTISKAKGQPREPQVYTLPPSQEEMTKNQVSLTCLVKGFYPSDIAVEWESNGQPENNYKTTPPVLDSDGSFFLYSRLTVDKSRWQEGNVFSCSVMHEALHNHYTQKSLSLSPGK
modifications: Fusionsprotein
**Q.** What does the source list for B1?
**A.** cellularity in spleen and lymph nodes (lymph nodes and spleen): increase in cellularity in spleen and lymph nodes; immune response on increase of the Flt3-L dose [1]: not correlated with a further intensification of the immune response; maturation of the dendritic cells in the lymph node (dendritic cells): does not lead to maturation of the dendritic cells; adjuvant effect (frequency of antigen-specific CD8+ T lymphocytes) [2]: significant adjuvant effect; also recorded: strongest effect; detectable in serum after injection ([3]; 20 μg and 50 μg i.p.): up to 5 days; half-life in serum ([3]; 20 μg i.p.): 51 h; half-time in serum ([3]; 20 μg i.p.): 2.14 days; half-life in serum ([3]; 50 μg i.p.): 40 h; stability compared to Flt3L without IgG4 fusion ([3]; from serum half-life): increased stability; portion of mice surviving in the long term (B16 Ova tumors [4]; Flt3L-IgG4 15 μg in combination with intranodal RNA vaccination 20 μg): about 80%; survival in the long term (B16 Ova tumors [4]; Flt3L-IgG4 15 μg without RNA vaccination): 10%; therapeutic effect on tumor growth (B16 Ova tumors [4]; Flt3L-IgG4 without RNA vaccination): minimal therapeutic effect on tumor growth; effect of the combination with intranodal vaccination of RNA (B16 Ova tumors [4]; survival): synergistic effect; tumor growth (B16 Ova tumors [5]; Flt3L administration combined with RNA vaccination): complete suspension of tumor growth; tumor growth (B16 Ova tumors [5]; only Flt3L administered, 15 μg): slight delay of tumor growth; effect of the combination with intranodal vaccination of RNA (B16 Ova tumors [5]; tumor volume): synergistic effect
